Test results from patent publication US10253076B2, “Peptides and combination of peptides for use in immunotherapy against ovarian cancer and other cancers” (immatics biotechnologies GmbH, priority 2015, dated 2019).

Target: HLA-A*02:01 (Homo sapiens, UniProt P04439, D140Y/D185E/D98H/E176V/E277Q/G131W/G231S/I119V/I121R/I166T/I218V/L300P/L318F/N151K/N90K/P208A/P217A/Q86G/Q94H/R138H/R169H/T345S)
Experiment: MHC binding assay (UV-ligand exchange, beta2m ELISA, peptide exchange yield)
Conditions: binding of HLA-class I restricted peptides to HLA-A*02:01, ranged by peptide exchange yield (UV-ligand exchange, β2m ELISA)
Method in brief: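 Readout is a β2m ELISA: stabilized complexes captured on streptavidin, detected with HRP-conjugated anti-β2m and TMB at 450 nm, reporting peptide exchange yield. Complexes come from UV-light cleavage of a conditional ligand in HLA-A*02:01 and replacement by the candidate peptide, samples diluted 100-fold.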

309 (GLFDGVPTTA; listed as Homo sapiens) [compound 309]
Peptide exchange: ″+++″ (≥50% = +++)

310 (FLVDTPLARA; listed as Homo sapiens) [compound 310]
Peptide exchange: ″++++″ (≥75% = ++++)

311 (RLYTGMHTV; listed as Homo sapiens) [compound 311]
Peptide exchange: ″+++″ (≥50% = +++)

312 (IISDLTIAL; listed as Homo sapiens) [compound 312]
Peptide exchange: ″+++″ (≥50% = +++)

313 (VLFDDELLMV; listed as Homo sapiens) [compound 313]
Peptide exchange: ″+++″ (≥50% = +++)

314 (ALIAEGIALV; listed as Homo sapiens) [compound 314]
Peptide exchange: ″+++″ (≥50% = +++)

315 (YLQDVVEQA; listed as Homo sapiens) [compound 315]
Peptide exchange: ″+++″ (≥50% = +++)

316 (ILLERLWYV; listed as Homo sapiens) [compound 316]
Peptide exchange: ″+++″ (≥50% = +++)

317 (SLAALVVHV; listed as Homo sapiens) [compound 317]
Peptide exchange: ″+++″ (≥50% = +++)

318 (GLINTGVLSV; listed as Homo sapiens) [compound 318]
Peptide exchange: ″++″ (≥20% = ++)

320 (KMFEFVEPLL; listed as Homo sapiens) [compound 320]
Peptide exchange: ″++++″ (≥75% = ++++)

321 (GLFEDVTQPGILL; listed as Homo sapiens) [compound 321]
Peptide exchange: ″++++″ (≥75% = ++++)

322 (TLMTSLPAL; listed as Homo sapiens) [compound 322]
Peptide exchange: ″+++″ (≥50% = +++)

324 (FLYDEIEAEV; listed as Homo sapiens) [compound 324]
Peptide exchange: ″+++″ (≥50% = +++)

325 (FIMPATVADATAV; listed as Homo sapiens) [compound 325]
Peptide exchange: ″+++″ (≥50% = +++)

326 (FLPEALDFV; listed as Homo sapiens) [compound 326]
Peptide exchange: ″+++″ (≥50% = +++)

327 (GLAPFTEGISFV; listed as Homo sapiens) [compound 327]
Peptide exchange: ″+++″ (≥50% = +++)

328 (ALNDQVFEI; listed as Homo sapiens) [compound 328]
Peptide exchange: ″+++″ (≥50% = +++)

329 (FLVTLNNVEV; listed as Homo sapiens) [compound 329]
Peptide exchange: ″++++″ (≥75% = ++++)

330 (QLALKVEGV; listed as Homo sapiens) [compound 330]
Peptide exchange: ″+++″ (≥50% = +++)

331 (KVDTVWVNV; listed as Homo sapiens) [compound 331]
Peptide exchange: ″+++″ (≥50% = +++)

332 (YLISELEAA; listed as Homo sapiens) [compound 332]
Peptide exchange: ″+++″ (≥50% = +++)

333 (FLPDANSSV; listed as Homo sapiens) [compound 333]
Peptide exchange: ″++″ (≥20% = ++)

334 (TLTKVLVAL; listed as Homo sapiens) [compound 334]
Peptide exchange: ″+++″ (≥50% = +++)

335 (YSLSSVVTV; listed as Homo sapiens) [compound 335]
Peptide exchange: ″+++″ (≥50% = +++)

336 (ILLTAIVQV; listed as Homo sapiens) [compound 336]
Peptide exchange: ″+++″ (≥50% = +++)

337 (HLLSELEAAPYL; listed as Homo sapiens) [compound 337]
Peptide exchange: ″++++″ (≥75% = ++++)

339 (GLWEIENNPTVKA; listed as Homo sapiens) [compound 339]
Peptide exchange: ″++++″ (≥75% = ++++)

340 (ALLSMTFPL; listed as Homo sapiens) [compound 340]
Peptide exchange: ″++++″ (≥75% = ++++)

341 (SQIALNEKLVNL; listed as Homo sapiens) [compound 341]
Peptide exchange: ″+++″ (≥50% = +++)

342 (HIYDKVMTV; listed as Homo sapiens) [compound 342]
Peptide exchange: ″+++″ (≥50% = +++)

343 (SLLEVNEESTV; listed as Homo sapiens) [compound 343]
Peptide exchange: ″+++″ (≥50% = +++)
